Patent publication US20140350225A1 (JINAN UNIVERSITY, published 2014)

Target: T1, basic Fibroblast Growth Factor (bFGF) (human, UniProt P09038 143-288, limits assumed)
T1 construct: Bought recombinant protein; It was coated on ELISA plates; also called recombined humanized bFGF; antigen bFGF
Assay: indirect ELISA: bFGF coated at 0.5 ug/ml, anti-His-tag detection, A450
Protocol: The recombined humanized bFGF (Sigma-Aldrich Co.) was diluted to 0.5 μg/ml with carbonate buffer solution (0.05 mol/L, pH9.6) to coat ELISA plates at an amount of 100 μL/well, and incubated at 37° C. for 3 h. After discarding the liquid in the well, the plates were washed with PBST (PBS, 0.015 mol/L, pH 7.4, comprising Tween 20 0.05% (v/v)) for three times, blocked with fat-free milk-PBST 5% (wt), added with the ds-Diabody and anti-bFGF ScFv prepared according to example 1 at a certain concentration to achieve an amount of 100 μL/well. Then the plates were incubated at 37° C. for 1 h, washed with PBST for three times, added with 100 μL/well diluted anti-His-tag mouse monoclonal antibody 1:2000 (v/v) (sigma-aldrich Co.), incubated at 37° C. for 1 h, washed with PBS-T for three times again, and then added with diluted HRP marked goat anti-mouse polyclonal antibody (1:8000 (v/v) (sigma-aldrich Co.), and incubated at 37° C. for 0.5 h. After that, the plates were washed with PBS-T for 5 times, stained by TMB and detected at A450. Meanwhile, PBS was used as a negative control.

T1 sequence (P09038 143-288 limits assumed): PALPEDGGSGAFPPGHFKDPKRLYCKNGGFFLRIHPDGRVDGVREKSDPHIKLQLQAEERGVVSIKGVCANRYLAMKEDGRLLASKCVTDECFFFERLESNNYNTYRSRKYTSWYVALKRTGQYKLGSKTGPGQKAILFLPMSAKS

B1: anti-bFGF humanized ds-Diabody (other)
chain: QSVLTQPASVSGSPGQSITISCTGTSSDVGGYNYVSWYQQHPGKAPKLMIYDVSNRPSGVSNRFSGSKSGNTASLTISGLQAEDEADYYCSSYTSSSTVVFGCGTKLTVLGGGGSQVQLQESGGGLVQPGGSLRLSCAASGFTFSSYEMNWVRQAPGKCLEWVSYISSSGSTIYYADSVKGRFTISRDNAKNSLYLQMNSLRAEDTAVYYCARELTGDWGAFDIWGQGTMVTVSSHHHHHH
notes: Dimer of two VL-GGGGS-VH chains joined covalently by disulfide bonds between Cys at VL 100 and Cys at VH 44; Bivalent; Expressed in HEK 293T cells and purified on a Ni column; also called disulfide bond stabilized-diabody; VL-GGGGS-VH; not shown: N-terminal residues from the vector p3XFLAG-Myc-CMV-25, if any stay on the secreted protein
binding result: binds
